Results from patent US9168297B2, “Regulation of skin pigmentation by neuregulin-1 (NRG-1)” (The United States of America, as Represented by the …, priority 2010, dated 2015).

Experiments:
Assay type in all cases: cell-based, human
HEM-DP melanocytes [1] = test: Melanin content assay (melanin/protein); conditions: NRG-1 50 ng/ml
Method: (§1) FIGS. 6A and 6B are bar graphs illustrating the effect of NRG-1 on the pigmentation of cultured human melanocytes. FIG. 6A) Lightly-pigmented (HEM-LP) and FIG. 6B) Darkly-pigmented (HEM-DP) melanocytes were treated with or without NRG-1 (50 ng/ml) for 1, 3, 5 or 9 days and proteins were extracted from each sample. After centrifugation at 10,000 g for 15 minutes, precipitates were analyzed for melanin content, and the supernatants were analyzed for protein content. Results are the average of three studies±SD; statistically significant differences are indicated.
FIGS. 9A and 9B are digital images illustrating the effect of pan-ERBB inhibitors on NRG-1 action on human melanocytes and MelanoDerms. FIG. 9A) HEM-DP melanocytes were treated for 9 days with 50 ng/ml NRG-1 in the presence of C39 (0.5 μM) or CI-1033 (2 μM) or vehicle (DMSO) alone. The results are the averages of 3 independent studies±SD. FIG. 9B) Dark MelanoDerms were treated for 9 days with 50 ng/ml NRG-1 in the presence of C39 (0.5 μM) or CI-1033 (2 μM) or vehicle (DMSO) alone. L values shown are the average of 3 spots measured in the center of each Melanoderm.
(§2) Melanin contents were determined by dissolving cell pellets overnight at room temperature in 200 μl 1 N NaOH, and melanin concentrations were quantitated by absorbance at 405 nm in a SpectraMax 250 ELISA reader (Molecular Devices) using a standard curve generated from synthetic melanin (Sigma-Aldrich, St. Louis, Mo.). Melanin content is expressed as μg melanin per μg protein. Each study was repeated at least three times.
(§3) The effects of NRG-1 on the pigmentation of human melanocytes were also examined. […] However, on day 9, when the cells had reached confluence, the pigmentation level of NRG-1-treated HEM-LP melanocytes was about 35% higher than the control (FIG. 6A).
The EGF domain of NRG-1 can activate the NRG-1 receptors. Two exemplary EGF domains of NRG-1 were aligned (SEQ ID NOs: 9 and 10) and 5 different […] peptides within these two sequences were designed (FIG. 12). Darkly-pigmented human epidermal melanocytes (HEM-DP) were treated with each of the […] peptides (100 nM) or the commercially available rhNRG-1 (6.25 nM) or the vehicle only (0.1% BSA in PBS) every other day for 7 days.
In particular, HEM-DP were treated with each of the 8-mer peptides (WC-6, […], amino acids 3-10 of SEQ ID NO: 10; WC-7, […], amino acids 8-15 of SEQ ID NO: 10; WC-8, […], amino acids 12-19 of SEQ ID NO: 10; WC-9, […], amino acids 16-23 of SEQ ID NO: 10; WC-10, […], amino acids 20-27 of SEQ ID NO: 10; 100 nM) or the full length EGF domain of NRG-1 (WC-11, SEQ ID NO: 10, 100 nM) or the commercially available rhNRG-1 (SEQ ID NO: 11, 6.25 nM) or vehicle only (0.1% BSA in PBS) every day for 9 days.

HEM-LP melanocytes [2] = test: Melanin content assay (melanin/protein); conditions: NRG-1 50 ng/ml
Method: as §1, §2, §3

HEM-LP melanocytes [3] = test: Proliferation of cultured melanocytes, total cell numbers counted; conditions: NRG-1 50 ng/ml, as early as day 1 until confluent, vs control
Method: (§4) FIGS. 5A-5D illustrate the effect of NRG-1 on the proliferation of human melanocytes in culture. FIG. 5A) Lightly-pigmented (HEM-LP) and FIG. 5B) darkly-pigmented (HEM-DP) melanocytes were treated with or without NRG-1 (50 ng/ml) for 1, 3, 5 or 9 days in 10 cm culture dishes and total cell numbers were counted. Results are the averages of three studies±SD. FIG. 5C) Phosphorylated-Akt levels were detected by western blotting for HEM-LP and HEM-DP melanocytes treated with NRG-1 (50 ng/ml) for 5 days compared to vehicle treated controls; GAPDH is used as a loading control. FIG. 5D) HEM-DP melanocytes were treated with NRG-1 (50 ng/ml) for 1, 3 or 5 days and p-Akt levels were detected by western blotting compared to vehicle treated controls; GAPDH is used as a loading control. Results shown are representative of three studies; statistically significant differences are indicated.
(§5) Human neonatal epidermal melanocytes, lightly and darkly pigmented (HEM-LP and HEM-DP, respectively) were obtained from Cascade Biologics (Portland, Oreg.) and were cultured in melanocyte growth medium (MGM) consisting of Medium 254 and human melanocyte growth supplement (both from Cascade Biologics) at 37° C. under 5% CO2. Melanocytes from the third to ninth passage were used in these studies. […]

HEM-DP melanocytes [4] = test: as above; conditions: NRG-1 50 ng/ml, as early as day 1 until confluent, vs control
Method: as §4, §5

B1: NRG-1: commercially available recombinant human neuregulin-1 (rhNRG-1-β1, R&D Systems), SEQ ID NO: 11 (protein)
chain: TSHLVKCAEKEKTFCVNGGECFMVKDLSNPSRYLCKCPNEFTGDRCQNYVMASFYKHLGIEFMEAEELYQK
Melanin content, NRG-1 alone (HEM-DP melanocytes [1]; 9 days, vehicle DMSO): stimulated melanin content
Pigmentation level (HEM-DP melanocytes [1]; day 9, vs controls): remained higher
Pigmentation level (HEM-DP melanocytes [1]; starting at day 5, subconfluent, vs controls): higher than the controls
Pigmentation level higher than the control (HEM-LP melanocytes [2]; day 9, confluent): about 35%
Level of pigmentation (melanin/protein) (HEM-LP melanocytes [2]; days 1 through 5, subconfluent, vs control): not significantly different
Cell numbers (HEM-LP melanocytes [3]): significantly higher
Cell numbers (HEM-DP melanocytes [4]): significantly higher
